{
  "source": "patent US5962294A",
  "about": "“Compositions and methods for the identification and synthesis of sialyltransferases” (The Regents of the University of California, priority 1993, dated 1999)",
  "key": {"rat ST3N": {"molecular_target": "T1, rat ST3N (Rattus norvegicus, UniProt Q02734)", "T1 sequence (Q02734 29-374 limits assumed)": "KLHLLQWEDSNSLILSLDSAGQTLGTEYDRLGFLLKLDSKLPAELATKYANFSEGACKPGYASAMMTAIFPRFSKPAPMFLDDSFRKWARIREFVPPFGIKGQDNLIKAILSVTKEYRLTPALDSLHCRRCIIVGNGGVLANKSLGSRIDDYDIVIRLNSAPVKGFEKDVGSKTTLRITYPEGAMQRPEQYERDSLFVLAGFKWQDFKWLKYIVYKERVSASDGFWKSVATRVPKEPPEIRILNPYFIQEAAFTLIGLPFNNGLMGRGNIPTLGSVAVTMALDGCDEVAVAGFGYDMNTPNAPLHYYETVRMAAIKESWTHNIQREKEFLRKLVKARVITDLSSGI", "assay": "Acceptor specificity of soluble rat ST3N fusion protein (Table 3)", "details": "acceptor 0.2 mM; relative to LNT"}, "ST3": {"molecular_target": "T2, ST3 (Homo sapiens, UniProt Q11206)", "T2 construct": "A truncated form of ST3, lacking the first 39 amino acids of the long-form open reading frame; made in house; host or cells: COS-1 (concentrated culture medium)", "T2 sequence (Q11206 41-333)": "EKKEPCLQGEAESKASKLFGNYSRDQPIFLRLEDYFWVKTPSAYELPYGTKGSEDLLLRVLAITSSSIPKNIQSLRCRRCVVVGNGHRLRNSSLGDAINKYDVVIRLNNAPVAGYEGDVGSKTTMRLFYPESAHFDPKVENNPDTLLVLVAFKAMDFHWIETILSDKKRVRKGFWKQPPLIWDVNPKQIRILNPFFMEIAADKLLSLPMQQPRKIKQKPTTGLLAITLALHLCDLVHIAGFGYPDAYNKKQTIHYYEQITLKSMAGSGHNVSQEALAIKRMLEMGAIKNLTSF", "assay": "Acceptor specificity of soluble ST3 (AZ3, concentrated COS-1 media)", "format": "biochemical"}, "α2,3-N sialyltransferase": {"molecular_target": "T3, α2,3-N sialyltransferase (Rattus norvegicus, UniProt Q02734)", "T3 construct": "made in house; host or cells: COS-1 (concentrated culture medium, plasmid pBD122)", "T3 sequence (Q02734 29-374 limits assumed)": "T1 sequence (Q02734 29-374 limits assumed)", "assay": "Sialyltransferase assay of soluble rat α2,3-N secreted from COS-1 cells (pBD122)", "format": "biochemical", "description": "In order to produce a soluble form of the sialyltransferase for enzymatic characterization, a fusion protein containing the catalytic domain of the enzyme and the insulin cleavable signal sequence was constructed in the mammalian expression vector pSVL (Pharmacia). […] PCR reactions were carried out as described above with annealing temperature at 55° C."}, "ST3O": {"molecular_target": "T4, ST3O (Sus scrofa, UniProt Q02745)", "T4 sequence (Q02745 28-343 limits assumed)": "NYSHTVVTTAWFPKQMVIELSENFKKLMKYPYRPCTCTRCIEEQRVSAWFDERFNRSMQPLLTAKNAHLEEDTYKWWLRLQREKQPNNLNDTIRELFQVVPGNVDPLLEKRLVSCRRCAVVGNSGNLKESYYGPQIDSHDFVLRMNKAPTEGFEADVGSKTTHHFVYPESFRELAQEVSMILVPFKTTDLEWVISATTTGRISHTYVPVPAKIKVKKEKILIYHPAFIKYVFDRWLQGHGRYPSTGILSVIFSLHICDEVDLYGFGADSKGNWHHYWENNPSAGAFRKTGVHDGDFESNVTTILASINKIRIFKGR", "assay": "Acceptor specificity of ST3O (Table 4)", "details": "acceptor 0.2 mM"}, "ST3N": {"molecular_target": "T5, ST3N (Rattus norvegicus, UniProt Q02734)", "T5 sequence (Q02734 29-374 limits assumed)": "T1 sequence (Q02734 29-374 limits assumed)", "assay": "Acceptor specificity of ST3N (Table 4)", "details": "acceptor 0.2 mM"}, "human ST3N": {"molecular_target": "T6, human ST3N (Homo sapiens, UniProt Q11203)", "T6 sequence (Q11203 62-375)": "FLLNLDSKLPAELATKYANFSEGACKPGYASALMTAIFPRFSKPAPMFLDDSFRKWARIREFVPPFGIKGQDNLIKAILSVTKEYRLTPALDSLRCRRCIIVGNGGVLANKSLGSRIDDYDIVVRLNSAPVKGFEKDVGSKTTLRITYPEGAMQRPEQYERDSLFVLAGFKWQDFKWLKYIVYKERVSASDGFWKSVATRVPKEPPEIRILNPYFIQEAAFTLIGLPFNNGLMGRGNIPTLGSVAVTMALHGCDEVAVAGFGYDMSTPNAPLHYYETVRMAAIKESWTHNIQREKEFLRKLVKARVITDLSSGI", "assay": "Acceptor specificity of soluble human ST3N (protein A fusion from COS-1 cells, on IgG Sepharose)", "details": "acceptor 0.2 mM; relative to LNT"}},
  "data": [
    {"substance": "Asialo-α1 -acid glycoprotein: glycoprotein acceptor (Galβ1,4GlcNAc-R)", "values": [
      {"measurement": "Relative activity (%) Rat", "setting": "rat ST3N", "result": 9, "unit": "%"},
      {"measurement": "acceptor substrate for ST3 enzyme (in words)", "setting": "ST3", "result": "sialic acid was incorporated"},
      {"measurement": "acceptor utilisation by secreted α2,3-N enzyme", "setting": "α2,3-N sialyltransferase", "result": "capable of sialylating"},
      {"measurement": "Relative rate (%) ST30", "setting": "ST3O", "result": 0, "unit": "%"},
      {"measurement": "Relative rate (%) ST3N", "setting": "ST3N", "result": 9, "unit": "%"},
      {"measurement": "Relative activity (%) Human", "setting": "human ST3N", "result": 14, "unit": "%"}
    ]}
  ]
}
